From PMC7264293, “Multi-site-mediated entwining of the linear WIR-motif around WIPI β-propellers for autophagy” (Nature Communications, 2020)

What follows are substances tested against GB1-tagged ATG2A short fragment (1374-1404), the WIR-peptide (UniProt Q2TAZ0) (assay: ITC).
GB1-tagged ATG2A short fragment (1374-1404), the WIR-peptide, sequence (Q2TAZ0 1374-1404): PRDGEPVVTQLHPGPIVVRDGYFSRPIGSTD

WIPI3-Δloop, Q5MNZ6 Y65A, sequence (Q5MNZ6 other isoform, or with tags, fused parts or gaps Y65A | mutant): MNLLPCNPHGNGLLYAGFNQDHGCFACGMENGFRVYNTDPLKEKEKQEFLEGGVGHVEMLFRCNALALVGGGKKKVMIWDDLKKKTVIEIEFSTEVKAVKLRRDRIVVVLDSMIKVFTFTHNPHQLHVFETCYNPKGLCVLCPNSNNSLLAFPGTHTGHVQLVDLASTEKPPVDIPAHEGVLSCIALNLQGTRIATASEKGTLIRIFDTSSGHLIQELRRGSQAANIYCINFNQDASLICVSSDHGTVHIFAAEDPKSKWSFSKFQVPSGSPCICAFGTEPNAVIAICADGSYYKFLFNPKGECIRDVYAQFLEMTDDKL
WIPI3-Δloop, Q5MNZ6 R62A, sequence (Q5MNZ6 other isoform, or with tags, fused parts or gaps R62A | mutant): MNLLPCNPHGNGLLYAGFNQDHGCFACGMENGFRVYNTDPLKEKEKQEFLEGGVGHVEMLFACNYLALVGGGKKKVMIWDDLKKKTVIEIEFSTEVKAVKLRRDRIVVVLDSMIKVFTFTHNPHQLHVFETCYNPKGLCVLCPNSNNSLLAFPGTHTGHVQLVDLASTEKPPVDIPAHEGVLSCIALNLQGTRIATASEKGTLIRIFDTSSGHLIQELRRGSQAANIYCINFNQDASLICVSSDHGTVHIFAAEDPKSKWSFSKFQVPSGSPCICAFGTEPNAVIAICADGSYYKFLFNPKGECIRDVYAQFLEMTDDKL
WIPI3-Δloop, Q5MNZ6 R109Q, sequence (Q5MNZ6 other isoform, or with tags, fused parts or gaps R109Q | mutant): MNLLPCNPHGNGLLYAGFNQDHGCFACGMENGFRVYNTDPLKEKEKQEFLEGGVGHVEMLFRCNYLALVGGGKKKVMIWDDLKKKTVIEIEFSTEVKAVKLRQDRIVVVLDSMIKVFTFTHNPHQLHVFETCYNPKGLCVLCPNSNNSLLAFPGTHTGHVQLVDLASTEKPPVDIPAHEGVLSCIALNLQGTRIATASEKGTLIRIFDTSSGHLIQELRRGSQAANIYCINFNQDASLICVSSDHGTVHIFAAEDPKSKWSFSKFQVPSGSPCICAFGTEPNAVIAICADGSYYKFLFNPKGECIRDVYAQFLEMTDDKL
WIPI3-Δloop, Q5MNZ6 I96A, sequence (Q5MNZ6 other isoform, or with tags, fused parts or gaps I96A | mutant): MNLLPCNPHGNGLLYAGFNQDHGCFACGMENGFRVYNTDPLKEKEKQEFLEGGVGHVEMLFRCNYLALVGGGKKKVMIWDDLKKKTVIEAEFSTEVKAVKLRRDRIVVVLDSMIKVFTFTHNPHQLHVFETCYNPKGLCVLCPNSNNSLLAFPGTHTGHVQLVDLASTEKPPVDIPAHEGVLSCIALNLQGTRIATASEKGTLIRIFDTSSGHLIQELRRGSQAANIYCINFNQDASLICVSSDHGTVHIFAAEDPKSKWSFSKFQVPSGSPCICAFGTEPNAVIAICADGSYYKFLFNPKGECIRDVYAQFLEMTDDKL
WIPI3-Δloop, Q5MNZ6 F125A, sequence (Q5MNZ6 other isoform, or with tags, fused parts or gaps F125A | mutant): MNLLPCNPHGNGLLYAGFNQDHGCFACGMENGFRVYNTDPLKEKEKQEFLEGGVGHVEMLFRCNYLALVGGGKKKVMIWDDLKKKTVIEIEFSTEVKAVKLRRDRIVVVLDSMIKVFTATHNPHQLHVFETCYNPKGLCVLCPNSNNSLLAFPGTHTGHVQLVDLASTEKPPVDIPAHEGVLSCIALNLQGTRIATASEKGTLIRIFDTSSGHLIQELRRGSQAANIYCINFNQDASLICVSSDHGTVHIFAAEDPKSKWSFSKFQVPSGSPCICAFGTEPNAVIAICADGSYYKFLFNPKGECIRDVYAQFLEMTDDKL
WIPI3-Δloop, Q5MNZ6 F98A, sequence (Q5MNZ6 other isoform, or with tags, fused parts or gaps F98A | mutant): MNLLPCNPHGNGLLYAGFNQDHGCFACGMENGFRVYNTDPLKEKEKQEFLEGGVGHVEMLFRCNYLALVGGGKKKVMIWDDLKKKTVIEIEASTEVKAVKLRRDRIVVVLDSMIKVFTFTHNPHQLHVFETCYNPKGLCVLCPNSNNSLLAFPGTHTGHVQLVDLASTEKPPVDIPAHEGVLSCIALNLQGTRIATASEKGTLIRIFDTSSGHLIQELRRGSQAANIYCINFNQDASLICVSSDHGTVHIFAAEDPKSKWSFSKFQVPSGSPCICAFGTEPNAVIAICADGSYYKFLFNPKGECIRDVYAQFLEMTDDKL

Substance	Kd
WIPI3-Δloop, Q5MNZ6 F98A	31.6 µM
WIPI3-Δloop, Q5MNZ6 F125A	244 µM
WIPI3-Δloop, Q5MNZ6 R62A	72.5 µM
WIPI3-Δloop, Q5MNZ6 Y65A	76.1 µM

Other lines, results leading:

Kd	Substance
40 µM	WIPI3-Δloop, Q5MNZ6 I96A
52.6 µM	WIPI3-Δloop, Q5MNZ6 R109Q
